The target in the assay is stabilized soluble SARS-CoV-2 S protein trimer (SARS-CoV-2) (UniProt P0DTC2). In words: cryo-EM structure.

“monomeric soluble ACE2 (ACE2_(615)) (from UniProt Q9BYF1 18-615) (domain or fragment)” registered a stoichiometry N (ACE2 per S trimer) of 3.

Values taken from doi:10.1101/2020.09.18.301952.
